As a reminder, the Km is the concentration of substrate that gives half-maximal velocity. For orientation: kcat means the maximal rate divided by the concentration of active sites.

Our source for the Km and kcat values is PMC6205950, “4-Chlorophenol Oxidation Depends on the Activation of an AraC-Type Transcriptional Regulator, CphR, in Rhodococcus sp. Strain YH-5B” (Frontiers in Microbiology, 2018).

Holding throughout (test): purified protein
One series has as its system Oc1ccccc1. The note with it: 200 μM NADH, 25 μM FAD, 50 mM phosphate pH 7.5.
The subject of another series is O=[N+]([O-])c1cccc(O)c1. The note with it: 200 μM NADH, 25 μM FAD, 50 mM phosphate pH 7.5.
The test system of a further series is Oc1ccc(Cl)cc1. The note with it: 200 μM NADH, 25 μM FAD, 50 mM phosphate pH 7.5, text prints 8.7 ± 1.1.

For the substance “two-component 4-CP monooxygenase (H6-CphA1 and H6-CphA2) (Rhodococcus sp. (in: high G+C Gram-positive bacteria))”, the figures for the Michaelis-Menten constant (Km) with Oc1ccccc1, with O=[N+]([O-])c1cccc(O)c1 and with Oc1ccc(Cl)cc1 were 9.6 ± 0.9 µM, 63.2 ± 7.7 µM and 8.7 ± 1.2 µM, respectively. For the same substance, the kcat in the series with Oc1ccc(Cl)cc1 worked out at 0.0103 ± 0.00067 s⁻¹.
